From PMC7767363, “Development of HER2-Specific Aptamer-Drug Conjugate for Breast Cancer Therapy” come the findings set out here.

This data set has as its target HER2 (His-tagged HER2 protein) (UniProt P04626 23-652). In words: Ni-NTA bead pull-down with RT-qPCR quantification; 1.5 mM Mg2+; 3 nM HER2, aptamer 0-100 nM; 30 mM Tris-HCl, 150 mM NaCl, 1.5 mM MgCl2, pH not stated, 30 min at room temperature (bead assay); cells 37 C, 30 min to 4 h. Conditions: tags: His. A general note: Real-time PCR tracks product formation cycle by cycle.

What is called Kd is a measure of binding affinity in units of concentration. A lower Kd goes with a tighter complex. AGCCGCGAGGGGAGGGAUAGGGUAGGGCGCGGCU (XNA, 2'-fluoro C and U (all pyrimidines)) [HER2 RNA aptamer (2'-F pyrimidine)] displayed a Kd of 16.5 ± 4.4 nM.
